The subject of data set [1] is PHA blasts (mitogen-activated normal human T lymphocytes). The data set is described as follows: FACS analysis of PHA blasts treated with bleomycin and peptides. The format is cell-based. As to conditions: FIG. 3D; for cell cycle pattern of PHA blasts, peptide in addition to bleomycin: 20 hr. Here is the method: (§1) Cell-cycle analysis. The cell cycle status of the cells treated with peptides and/or bleomycin or colchicine was analyzed by FACS, as described by Kawabe (1997) Nature 385:454-458. In brief, two million Jurkat cells were re-suspended and incubated in 300 μl Krishan's solution (0.1% Sodium citrate, 50 μg/ml PI, 20 μg/ml RNase A and 0.5% NP-40; see supra) for 1 hr at 4° C. and analyzed by FACScan™ (Beckton Dickinson, Mountain View, Calif.) with the program CELLQuest™ (Beckton Dickinson).
(§2) The effect of TAT-S216A and TAT-S216 on the cell death induced by bleomycin was examined. The results are shown in FIG. 3; Trypan blue dye exclusion analysis of Jurkat cells treated with bleomycin (A) or colchicine (B) with or without indicated peptides. Bars, SD Vertical axis, % viability of the cells; Bleo 5, bleomycin 5 μg/ml; Bleo 10, bleomycin 10 μg/ml; colchicine, 5 μg/ml; TAT-S216 or TAT-S216A, 10 μM of indicated peptide. […] C, survival analysis of PHA blasts treated with bleomycin and peptides. Vertical axis, % viability of the cells determined by trypan blue dye exclusion analysis; horizontal axis, time in hours. Bleo 5, bleomycin 5 μg/ml; Bleo 10, bleomycin 10 μg/ml; TAT-S216 or TAT-S216A, 10 μM of indicated peptide. D, FACS analysis of the cells treated with bleomycin and peptides. PHA-blasts were treated with bleomycin with or without peptides for 20 hr. Vertical axis, cell number; horizontal axis, DNA content indicated by propidium iodide staining.
In order to confirm the specificity of the effect of these peptides on cancer cells in which the G1 checkpoint is abrogated; the effect of these peptides on normal human cells was investigated. Mitogen-activated normal human T lymphocytes (PHA blasts) were prepared by stimulating peripheral blood mononuclear cells obtained from a healthy donor with PHA for 1 week. These cells were treated with bleomycin (5 and 10 μg/ml) in the presence or absence of either TAT-S216A or TAT-S216.
On the technique in general: Flow cytometry measures light scatter and fluorescence of single cells or particles in a stream.

For data set [2], the system named is Jurkat cells. The data set is described as follows: Cell-cycle analysis by FACS, DNA damage-induced G2 arrest. The format is cell-based, human. As to conditions: bleomycin 10 μg/ml. Here is the method:
as §1
(§3) The cell cycle status of the cells treated with TAT-S216A or TAT-S216 upon the DNA damage-induced G2 arrest was analyzed by FACS analysis. Histone H1 kinase activities of theses cells were simultaneously monitored. […] Results are shown in FIG. 2: abrogation of DNA damage-induced G2 arrest by TAT-S216A and TAT-S216 peptides. FIG. 2A, FACS analysis of Jurkat cells treated with bleomycin and peptides. Cells were treated with bleomycin (10 μg/ml) with or without peptides (10 μM) for 20 hr. B, histone H1 kinase analysis. Cell lysates were prepared from the cells treated with the indicated reagent for 6 hr. Concentrations used were: hydroxyurea (HU), 100 μg/ml; bleomycin (Bleo), 10 μg/ml; colchicine, 5 μg/ml; TAT-S216A and TAT-S216, 10 μM. C, FACS analysis of colchicine -and peptide-treated cells. Jurkat cells were treated with colchicine (5 μg/ml) with or without peptide (10 μM) for 20 hr.

In data set [3] the test system is Jurkat cells. The data set is described as follows: Trypan blue dye exclusion analysis of Jurkat cells treated with bleomycin or colchicine with or without peptides. In kind it is cell-based. As to conditions: for effect on cytotoxicity by colchicine: FIG. 3B, colchicine 5 μg/ml, peptide 10 μM. Here is the method:
as §2

Data set [4] deals with histone H1 kinase activity. The data set is described as follows: Histone H1 kinase assay on lysates of treated Jurkat cells. The conditions noted are these: FIG. 2B; bleomycin 10 μg/ml or hydroxyurea 100 μg/ml; 6 hr. The format is cell-based, human. Here is the method:
Histone H1 kinase assay. Ten million Jurkat cells were treated with hydroxyurea (100 μg/ml), bleomycin (10 μg/ml), or colchicine (5 μg/ml) with or without addition of TAT-S216A, TAT-S216 or TAT-Control (10 μM) for 6 hr. The cells were washed in cold PBS and lysed at 4° C. in 1 ml of buffer A (50 mM Tris pH 8, 2 mM DTT, 5 mM EDTA, 100 mM NaCl, 0.5% NP40, 20 mM Na3V04, 50 mM NaF, 4 μM Okadaic acid, 5 μg/ml aprotinin, 5 μg/ml pepstatin A and 5 μg/ml leupeptin.). Twenty microliter of p13^suc1 agarose beads (Upstate Biotechnology., Saranac, N.Y.) were added to the cleared lysates, incubated for 4 hr at 4° C., and washed five times with buffer A without 5 mM EDTA, 20 mM Na3V04, 50 mM NaF, 4 μM Okadaic acid. Histone HI kinase activity on the beads were analyzed by using Cdc2 kinase assay kit (Upstate Biotechnology) with [γ-^32P] ATP, followed by 12% SDS-PAGE electrophoresis, and autoradiographed to detect the phosphorylated Histone H1.
as §3

Data set [5] concerns PHA blasts (mitogen-activated normal human T lymphocytes). Nature of the data set: Trypan blue dye exclusion survival analysis of PHA blasts treated with bleomycin and peptides. The format is cell-based. The conditions noted are these: FIG. 3C; bleomycin 5 and 10 μg/ml; peptide 10 μM. Here is the method:
Cell culture and plasmids. A human T-cell leukemia-derived cell line, Jurkat, was cultured in RPMI 1640 (Sigma) supplemented with 10% fetal calf serum. (IBL: Immuno-Biological Laboratories, Gunma, Japan) at 37° C./5% CO2. Human pancreatic epitheloid carcinoma-derived cell lines, MIA PaCa2 and PANC1, were cultured in Eagle's MEM (IWAKI, Chiba, Japan) and Dulbecco's modified Eagle's medium with 4 mM […] (Sigma) and 1.0 mM sodium pyruvate (Life Technologies, Inc., Grand Island, N.Y.), respectively, and supplemented with 10% fetal calf serum at 37° C./5% CO2. Normal human peripheral blood lymphocytes were collected by Ficoll-Paque (Amersham Pharmacia Biotech) density gradient. Two million cells/ml were cultured in RPMI 1640 supplemented with 10% fetal calf serum at 37° C./5% CO2 in the presence of 5 μg/ml PHA (Life Technologies, Inc.) for a week. Baculovirus lysates that include HA-tagged hChk1 (SEQ ID NO:3) or c-myc-tagged Chk2/HuCds1 (SEQ ID NO:4) and plasmid for GST-Cdc25C (amino, acid 200-256) were made as described in Matsuoka (1998) Science 282:1893-1897, and provided by Dr. Makoto Nakanishi (Department of Biochemistry, Nagoya City University.
The effect of TAT-S216A and TAT-S216 on the cell death induced by bleomycin was examined. […] Vertical axis, % viability of the cells determined by trypan blue dye exclusion analysis; horizontal axis, time in hours. […]

For the next data set, the target named is human Chk2 kinase (Homo sapiens, UniProt O96017). The data set is described as follows: In vitro phosphorylation (kination) of membrane-immobilized peptides by human Chk2 kinase (Gst-Chk2). More on the design: key to phosphorylation signal by human Chk2 kinase (graded) / in vitro phosphorylation by human Chk2 kinase (graded signal): a “+++” indicates the peptide was relatively highly phosphorylated; a “++” indicates the peptide was relatively less phosphorylated; a “+” indicates the peptide was detectably significantly phosphorylated over negative control; no indication indicates that a peptide was not significantly phosphorylated over negative control. As to conditions: for in vitro phosphorylation by human Chk2 kinase (graded signal): γ-33P-ATP, RT 1 hr, image analyzer signal graded −; for phosphorylation by human Chk2 kinase (in words): peptide on membrane, Gst-Chk2. In kind it is biochemical. Here is the method: Exemplary peptides were directly synthesized (immobilized) on a membrane and contacted with human Chk2 kinase. Specifically, oligo-peptides with all sequences predicted by the 3-dimensional model were directly synthesized on a membrane by using an auto-spot-peptide-synthesizer, Model ASP-22 2 (ABiMED, Germany). The amount of peptide was about 0.1 micro-mol/cm^2.
The membrane was incubated with 2% Gly-Gly in PBS for 2 hours (hr) at room temperature (RT). Then, they were washed three times with 0.1% Tween-P BS™. The “kination,” or “phosphorylation,” reaction was performed with a recombinant fusion protein Gst-Chk2 at a concentration of about 5 μg in 4 ml reaction buffer, 1 mM MgCl2, 2% Gly-Gly and γ-^33P-ATP in PBS at RT for 1 hr. After the reaction, the membrane was washed 5 times with RIPA (1% SDS, 1% NP-40, 100 mM NaCl) and analyzed with a Bass 2500™ image analyzer (Fuji, Japan).
The following Table 1 is a complete list of tested peptides and results of the in vitro phosphorylation by human Chk2 kinase assay.
The following example describes studies which identified exemplary G2 checkpoint-abrogating peptides of the invention. The following peptides of the invention were synthesized directly on membranes and tested in in vitro phosphorylation (“kination” assays, as described above.
These peptides were tested in in vitro kination reactions. The oligopeptides were used as phosphorylation substrates; added kinases are involved in the cell cycle G2 checkpoint. Thus, a substance that inhibits the kination reaction can be a cell cycle 62 checkpoint abrogator. For the detection of the phosphorylation status of substrates in this screening method, isotope-labeled ATP and anti-phospho-peptides antibody can be used.

The mark [6] stands for this setting: peptide synthesized on membrane (about 0.1 micro-mol/cm^2), Gst-Chk2 about 5 μg in 4 ml reaction buffer.
[7] abbreviates: peptide synthesized on membrane, about 0.1 micro-mol/cm^2, Gst-Chk2 about 5 μg in 4 ml.

Where no end group is shown, it is not given here.

The values below come from patent publication US7851592B2, “Compositions and methods for inhibiting G2 cell cycle arrest and sensitizing cells to DNA damaging agents” (CanBas Co. Ltd., priority 1999, dated 2010).

Sequence of human Chk2 kinase (O96017 whole entry): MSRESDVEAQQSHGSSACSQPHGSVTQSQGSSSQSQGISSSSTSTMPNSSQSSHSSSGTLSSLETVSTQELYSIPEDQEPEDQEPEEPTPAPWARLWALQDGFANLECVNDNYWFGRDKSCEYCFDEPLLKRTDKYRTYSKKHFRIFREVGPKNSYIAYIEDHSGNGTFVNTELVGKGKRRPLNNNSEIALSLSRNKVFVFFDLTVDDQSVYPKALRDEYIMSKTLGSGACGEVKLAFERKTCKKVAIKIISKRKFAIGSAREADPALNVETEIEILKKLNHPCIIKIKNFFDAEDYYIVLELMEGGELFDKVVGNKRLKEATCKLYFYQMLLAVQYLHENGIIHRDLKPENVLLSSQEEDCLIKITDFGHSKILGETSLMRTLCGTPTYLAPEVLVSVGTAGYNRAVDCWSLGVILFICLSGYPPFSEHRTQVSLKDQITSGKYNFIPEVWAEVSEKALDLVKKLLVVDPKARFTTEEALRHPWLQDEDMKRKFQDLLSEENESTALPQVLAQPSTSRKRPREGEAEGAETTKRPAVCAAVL

Turning to Bleomycin [reference compound], in data set [1] (bleomycin 5 μg/ml), the “cell cycle arrest of PHA blasts by bleomycin alone” value is “arrested at G1 and S phase but not G2”. For the same molecule, in the data set on Jurkat cells [2], the “cell cycle arrest of Jurkat cells by bleomycin alone” value was “arrested exclusively at G2”. Also, in the data set with Jurkat cells [3] (FIG. 3A, bleomycin at 5 or μ10 g/ml), the “Jurkat cells killed, bleomycin alone” value was 27-30%. Also, the “histone H1 kinase activity on treatment with drug alone” value in data set [4] is “decreased”.
As to `NC(=O)NO` [hydroxyurea, Hydroxyurea], in data set [4], the “histone H1 kinase activity on treatment with drug alone” value is “decreased”.
Consider YGRKKRRQRRRLYRSPAMPENL [TAT-S216A], for which the “cell cycle pattern of PHA blasts, peptide in addition to bleomycin” value in data set [1] is “no further alteration of cell cycle pattern was observed”. The “effect on cytotoxicity by colchicine” value in the data set with Jurkat cells [3] is “did not affect the cytotoxicity by colchicine”. For the same molecule, the “effect on cytotoxicity of bleomycin to normal cells (PHA blasts)” value in data set [5] is reported as “did not increase the cytotoxicity of bleomycin to normal cells”.
With LYRSPSHFENL, the “in vitro phosphorylation by human Chk2 kinase (graded signal)” value (“in vitro phosphorylation” below) in the data set with human Chk2 kinase (setting [6]) was “+”.
Consider LYRSPSYWENL, for which, in the data set with human Chk2 kinase (setting [6]), the “in vitro phosphorylation” value is given as “+”.
Take 1124 (WYRSPSMYENL) [compound 1124]: the “in vitro phosphorylation” value with human Chk2 kinase (setting [7]) is given as “++”.
With W Y T S P S Y F E N L (WYTSPSYFENL), in the data set with human Chk2 kinase, the “phosphorylation by human Chk2 kinase (in words)” value was “best phosphorylation substrates”.
Consider LYTSPSNFENL, for which the “in vitro phosphorylation” value with human Chk2 kinase (setting [6]) is listed as “+”.
On to LYHSPSYWENL, for which, in the data set with human Chk2 kinase (setting [6]), the “in vitro phosphorylation” value is listed as “+”.
Same read-out and setting: the value for LYSSPSHYENL was “++”; that for LYSSPSYWENL was “+”; that for LYTSPSYFENL was “++”.
For LYSSPSMPENL, in the data set with human Chk2 kinase (setting [6]), the “in vitro phosphorylation” value is recorded as “+”.
As to L Y R S P S Y Y E N L (LYRSPSYYENL), in the data set with human Chk2 kinase, the “phosphorylation by human Chk2 kinase (in words)” value is “best phosphorylation substrates”.
On to YGRKKRRQRRRLYRSPSMPENL [TAT-S216], for which the “cell cycle pattern of PHA blasts, peptide in addition to bleomycin” value in data set [1] is given as “no further alteration of cell cycle pattern was observed”. The “effect on cytotoxicity by colchicine” value in the data set with Jurkat cells [3] is on record as “did not affect the cytotoxicity by colchicine”. For the same molecule, the “effect on cytotoxicity of bleomycin to normal cells (PHA blasts)” value in data set [5] is “did not increase the cytotoxicity of bleomycin to normal cells”.
On to LYRSPSHWENL, for which the “in vitro phosphorylation” value with human Chk2 kinase (setting [6]) is given as “+”.
Same read-out and setting: the value for LYHSPSYFENL was “+”; that for LYSSPSQWENL was “+”; that for LYSSPSFWENL was “+”.
On the same count and under the same terms, for LYTSPSYYENL the value was “+++”; for LYTSPSHFENL, “+”; for LYSSPSHFENL, “++”.
Turning to LYRSPSNWENL, the “in vitro phosphorylation” value in the data set with human Chk2 kinase (setting [6]) is reported as “+”.
1129 (WYRSPSFYENL) [compound 1129]: the “in vitro phosphorylation” value with human Chk2 kinase (setting [7]) is reported as “+++”.
Consider LYTSPSMWENL, for which the “in vitro phosphorylation” value with human Chk2 kinase (setting [6]) was “++”.
On to 1127 (WYRSPSFPENL) [compound 1127], for which the “in vitro phosphorylation” value with human Chk2 kinase (setting [7]) is on record as “++”.
